Laboratory results as given in the nanobody polyreactivity screen of Harvey et al. (2022).

Test: yeast display, Sf9 membrane polyspecificity reagent, FACS + sequencing; frameworks hold sequencing errors
In short: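 Synthetic nanobody libraries on Saccharomyces cerevisiae BJ5465 were galactose-induced for 36–48 hours, stained 1 hour at 4 °C with 10% biotinylated, detergent-solubilized Sf9 membrane reagent and enriched on streptavidin microbeads. FACS then separated cells into low and high (top ~1%) gates by anti-HA (expression) and streptavidin (reagent binding) fluorescence. Genes were colony-PCR amplified, MiSeq 2 × 250 sequenced and CDR-length filtered. A clone's polyreactivity label is that of its gate of origin.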

| Sequence | polyreactivity (PSR sort gate) |
| --- | --- |
| QVQLEESGGGVVQAGGSLRLTCAASASTSYNMGWYTQAPGKERELVAAISYPGGRTYYADSVKGRFTISRDNAKNTVYLQMTCLKPDDTGVYYCAKRIFVTFDSWGQGTQVTVSS | low polyreactivity |
| QVQLEESGGRLVQAGGSLRLSCAASGRTFYVYALGWYRQAPGKEREFVAAISGSGGSTFYADSVKGRFTISRDNPKNTVYLQMNSLKPEDTAVYYCATGGSYLYYLKFGHLSAFDYWGQGTQVTVSS | low polyreactivity |
| QVQLEESGGRLVQAGGSLRLSCAASGSTFQTYAMGWYRQAPGKERELVAAITWRGGSTYYADSVKGRFTISRDNAKNTVYLQMNSLKPEDTAVYYCAAKWHGAHDHRAAYESWGQGTQVTVSS | low polyreactivity |
| QVQLEESGGSIVQAGGSLRLSCAASGYTFLGNAMGWYRKAPGKERELVAAISSGGTTFYADSVMGRFTISRDNAKNTVYLQMNSLNPEDTAVYYCAAKDTTVFYYDDDYWGQGTQVTVSS | low polyreactivity |
| QVQLEESGRGLVQAGGSLRLSCAASGNTLGYNAMGWYRQAPGKVRELVATFRGSGGITYYADSVKGRFTISRDNALNTVYLQMNSLKPEDTAVYYCANVYKSRVKGDHWGQGTQVTVSS | low polyreactivity |
| QVQLEESGRGLVQAGGSLRLSCAASGSIFIVYAIGWYRQAPGKERELVAAINDGGSTSYADSVKGRFTISRDNAKNTVYLQMNSLKPEDTAVYFCAAETYLGNDYWEDYYWGQGTQVTVSS | low polyreactivity |
| QVQLEESGVGLVQAGGSLRLICAASGITLFHYVMGWYRQAPGKERELVAVISSSGGSTYYADSVKGRFTISRDNAKNTVYLQMNSLKPEDTAVYYCAAETDSRKARVLYDCWGQGTQVTVSS | high polyreactivity |
| QVQLEESGVGLVQAGGSLRLSCAASGSIFYYNAMGSYRQPHGKERDLVAAISWGDGITYYADSVKGRFTISRDNGKNSVYLPMNSLKPEDTAVYYWAVDYYYLPYEYWGKGTQVTVSS | high polyreactivity |
| QVQLEESPGGLVQAGGSLRLSCAASGRIIGRYAMGWTRQAPGKERELVAAISYRGGSTYYADSVKGRFTISRDNAKNTVYLQMNSLKPEDTAVYYCAKDSRSWPFKYDYWGQGTQVTVSS | high polyreactivity |
| QVQLEESVGGLVQAGGSLRIICAASGSIFSVNSIGWSRQAPGKERELVAAITRDSGSTNYADSVKGRFTISRDNAKNTVYLQMNSLKPEDTAVYYCAADFYYNVSTTIVNFSYDYWGHGTQVTVSS | high polyreactivity |
| QVQLEETGGGLVHAGGILRLSCAASGIIYVVNAMGWYRQAPAKERELVAAISRNGGSTYYADSVKGRFTISRDNAKNTVYLQMNSLIPEDTAVYYCADRTVGRNAGFDYWGQVTQVTVSS | high polyreactivity |
| QVQLESGGGLVQAGGSLRISCAASGSTFVTYDMGWDRQAPGKEREIVAAIDWSGDSTYADSVKGRFTISRDNAKNTVYLQMNSLIPEDTAVYSCAADYDNYGDVYPYYTAGYGYWGQGTQVTVSS | low polyreactivity |
| QVQLEVSGGVLVQPGGSIRLSCAASGFIFGFYAKGWYRQAPGKERELVASISGRGGRTSYADSVKGRFTISRDNAKNTVYLQMNSLKPEDTAVYYCNKAGYGVSRKYDYWGQGTQVNVSS | high polyreactivity |
| QVQLGDSGGGLVQAGGSLRLICAASGLTIPDNTMGWYRQAPGKERELVSAIDWSGGGTDYADSVKGRFTISRDNAKNTVYLQMNSLYPVDTAVYYCATSWYIYPYDDWGQGTQVTVSS | low polyreactivity |
| QVQLGESAGGLVQAGGSLRLSCAASGFTFYPYAMGWYRQAPGKEREFVAAITWRGASTYYADSVKGRFTISRDNGKNTVYLQMNSLKPEDTAVYYCNARWRVPRGYDYWGQGTQVTVSS | high polyreactivity |
| QVQLGESGGALVQAGGSLRLSCAASGFTFKYYAMGWYRQAPGKERELVAAISRGGSTYYADSVKGRFTISRDNAKNTVYLQMNILKPEDTAVYYCAARYVRVGYDYWGQGTQVTVSS | high polyreactivity |
| QVQLGESGGGFVQAGGSLRLSCAASGFIFAPYAMGWYRHAPGKERELDAFISWSGGRTYYADSVKGRFTLSRDKAKNTVYLLMNSLNPEDTAVYYCNARGSRRGGPGYEYWGQGTQVTVSS | high polyreactivity |
| QVQLGESGGGLVHAGGSLRLSCAASGFIFGYYAMGWYRQAPGKERELVAAISQSTGSTYYADSVKGRFTISRDTAKNTVYLQMNSLKPEATAVYYCNAEGPEFTTWGYVYWAWGYGYWGQGTQVTVSS | low polyreactivity |
| QVQLGESGGGLVLAGGSLRLSCAASGYDMGWYRHAPGKESELVAAISRGGSTSYADSVKGRFTISRDNAKNTVYLQMNSLKPEDTAVYYCAARYGSYRVGYDYWGQGTQVTVSS | low polyreactivity |
| QVQLGESGGGLVLAGGSLRLSCAASGYIFRAYAMGWYRQAPGKERELVAAISSRGGSTYYADSVKGRFTSSRDYAKNTVYLQMNSLKPEDTEVYYCAAAYRQPYIGYGYWGQGTQVTVSS | high polyreactivity |

| Sequence | polyreactivity (PSR sort gate) |
| --- | --- |
| QVQLGESGGGLVQAGGRLRLRCAASGIIFTKYAMGLYRQAPGKERELVAAITASGGSTYYADSVKGRFTISRDTAKNTVYLQMNSLKPEDTAVYYCAARSPSRYGYWGQGTQVTVSS | high polyreactivity |
| QVQLGESGGGLVQAGGSIRLSCAASGRTFYGYAMGWYRQAPGTERELVAAISYSGARTYYADSVKGRFTISRDNAKHTVNLQMNSLKPEDTAVYYCAATRAYWIGHLDYWGQGTQVTVSS | high polyreactivity |
| QVQLGESGGGLVQAGGSLRLICAASGSTTPGNAMGWYRQAPGKQREFDADINSGGGTNYADSVKGRFTISRDNAKNNVYLQMNSLKPEDTAVYYCAKGYRRSFIGYWYLKYGYWGQGTQVTVSS | high polyreactivity |
| QVQLGESGGGLVQAGGSLRLRCAASGSNFRTYVMGWYRQGPGKERELVAAISRRGGSTYYADSVKGRFTISRDNAKNTVYLPMNSLKPEDTAVYNCAAEDEYSLEYSTLDYWGQGTQVTVSS | high polyreactivity |
| QVQLGESGGGLVQAGGSLRLSCAASGFTFYRYTLGWYRQAPGKERELVASITRRGGSTYYADSVKGRFTISRDNAKNYVYLQMNSLKPEDTAVYDCNAATPVWQSGTYEYWGQGTQVTVSS | high polyreactivity |
| QVQLGESGGGLVQAGGSLRLSCAASGGILYWYAMGWYRQAPGKERELVAAIDGTGGSTYYADSVKGRFTISRDNAKNTVYFQMYSLRPEDTEVYYCDATRPSIVTGNVKNGYWGHGTQVTVSS | low polyreactivity |
| QVQLGESGGGLVQAGGSLRLSCAASGLIIFSYAMGWSRQAPGKELEMVAAISRSGGRTYFADSVKGRFTISRDNAKNTVFLQMNRLKPEDTAVYYCAADDPYTPQYPDVTYDFWGQGTQVTVSS | high polyreactivity |
| QVQLGESGGGLVQAGGSLRLSCAASGNTFFTYAMGWYRQAPGKERELVAVITSVGSTNYADSVKGRFTISRDNAKNTVYLQMNSLKPEDTAVYYCAARTRRGLARYDYWGHGTQVTVSS | high polyreactivity |
| QVQLGESGGGLVQAGGSLRLSCAASGRIFISKTMGWSRQAPGKERELVAAITSSGRTYYADSVKGRFTISRDNAMNTVFFQMNSGKPEDTADYYCAADSYSGNDRRRGFDYWGQGTQVTVSS | low polyreactivity |
| QVQLGESGGGLVQAGGSLRLSCAASGRIFRVNTMGWYRQAPGKERELVAAIRSSGTRTYYAVSVKGRFTISRDNAKNTVYLQMNSLKPEDTAVYYCAATGRRGSGYYYWGQGTQVTVSS | high polyreactivity |
| QVQLGESGGGLVQAGGSLRLSCAASGRIFRYYAMGWYRQAPGKERELVAAISSSGGSTYYADSVKGRFTISRDNAKNTVYLQMNSLKPEDTAVYYCNTVGSVGKKRDYWGQGTQVTVSS | high polyreactivity |
| QVQLGESGGGLVQAGGSLRLSCAASGRIFSYNAMRWYRPAPGKERELVAGITSGGRTYYADSVKGRFTISRDNAKNTVYLQMNSLKPEDTAVYYCAARYVPARTRYYFWGQGSQVTVSS | high polyreactivity |
| QVQLGESGGGLVQAGGSLRLSCAASGRIFVYNAMGWYRQAPGKERQLVAAIRNDGSTNYADSVKGRFTISRDNAKNTVYFQMNSLKPEDTAVYYCAKSVTGWRGLWYTPRNYYWGQGTQVTVSS | high polyreactivity |
| QVQLGESGGGLVQAGGSLRLSCAASGRIFYLNAMGWYRQAPGKERELVAVITGNAGCTYYADSVKGRFTISRDHAKNTVYLQMNSLKPEDTAVYYCNALRLVPWSDALYDYWGQGTQVTVSS | low polyreactivity |
| QVQLGESGGGLVQAGGSLRLSCAASGRIVRFYAMGWYRQAPGKERELVATISRSGGSTYYADSVKGRFTISRDNAKNTVNIQMNSLKPEDTAVYYCARLVGSRYGHWGQGTQVTVSS | high polyreactivity |
| QVQLGESGGGLVQAGGSLRLSCAASGRTFGLYAMGWYRQAPGKERELVAAISWGGGRTYYADSVKGRFTISRDNAKNTVYLQMNSLKPEDTAVYYCNAVYSPRYYVGGYDYWGQVTQVTVSS | high polyreactivity |
| QVQLGESGGGLVQAGGSLRLSCAASGRTFHGYAMGWYRQAPGKERELVARINWSDGRTYYADSVKGRFTISRDNAKNTVYLQMNSLKPEDTAVYYCAADKTVSYAPAWYYYWGQGTQVTVSS | low polyreactivity |
| QVQLGESGGGLVQAGGSLRLSCAASGRTFVDNHMGWYRQAPGKERELVAAITWRGGGTYYADSVKGRFTISRYNAKNTVYLQMNSLKPEDTAVYYSAADQRPPFVEPRGLSTGEFDYWGQGTQVTVSS | low polyreactivity |
| QVQLGESGGGLVQAGGSLRLSCAASGSIFEVYAMGWYRQAPGKERELVAAINYTGGSTYYADSVKGRFTISRDNAKNTVYLQMNSLKPEDTAVYYCARDTSGIGTRYDYWGQGTQVTLSS | low polyreactivity |
| QVQLGESGGGLVQAGGSLRLSCAASGSTFPVYAMGWSRQAPGKEWELVAAISSGGTTNYADSVKGRFTISRDNAKNTVYLQRNSLKPEDTAVYYCAADDWYYHFLVSSSAFDYWGQGTQVTVSS | high polyreactivity |
